In PMC5740062, “CRTC1 mediates preferential transcription at neuronal activity-regulated CRE/TATA promoters” (Scientific Reports, 2017):

Target: T1, cAMP-responsive element-binding protein (CREB) (mouse (endogenous in primary cortical …, UniProt Q01147-1 1-341, phosphoserine at 133 (blotted as pCREB after FSK/KCl)))
T1 construct: Precipitated with an anti-CREB antibody and detected on blots as phosphorylated CREB (Ser133); also called pCREB; endogenous CREB; source: endogenous, mouse primary cortical neurons (12 DIV), formaldehyde-crosslinked, in lysate
Assay: co-IP; endogenous proteins; cortical neurons (12 DIV) treated with vehicle or FSK/KCl, crosslinked with 1% formaldehyde, lysed by sonication (50 mM Tris-HCl pH 8, 1% Triton X-100, 100 mM NaCl, 1 mM MgCl2); 2 mg protein immunoprecipitated overnight at 4 °C with anti-CREB or anti-CRTC1, Dynabeads protein G; blots of CRTC1 and pCREB; percent normalised to the maximum immunoprecipitation with the specific antibody in …
Details: partners not purified

T1 sequence (Q01147 other isoform, or with tags, fused parts or gaps): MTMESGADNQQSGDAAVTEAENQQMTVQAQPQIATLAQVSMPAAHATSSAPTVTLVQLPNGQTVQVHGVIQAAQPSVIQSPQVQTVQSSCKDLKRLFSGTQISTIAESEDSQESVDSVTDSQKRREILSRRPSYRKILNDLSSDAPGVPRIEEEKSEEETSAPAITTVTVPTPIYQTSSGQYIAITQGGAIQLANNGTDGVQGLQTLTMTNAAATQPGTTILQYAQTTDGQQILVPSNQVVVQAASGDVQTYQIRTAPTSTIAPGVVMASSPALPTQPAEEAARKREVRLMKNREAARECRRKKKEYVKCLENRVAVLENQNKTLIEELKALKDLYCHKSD

B1: CREB-regulated transcription coactivator-1 (CRTC1) (natural protein, UniProt Q68ED7 1-630, looked up)
chain: MATSNNPRKFSEKIALHNQKQAEETAAFEEVMKDLSLTRAARLQLQKSQYLQLGPSRGQYYGGSLPNVNQIGSSSVDLAFQTPFQSSGLDTSRTTRHHGLVDRVYRERGRLGSPHRRPLSVDKHGRQADSCPYGTVYLSPPADTSWRRTNSDSALHQSTMTPSQAESFTGGSQDAHQKRVLLLTVPGMEDTGAETDKTLSKQSWDSKKAGSRPKSCEVPGINIFPSADQENTTALIPATHNTGGSLPDLTNIHFPSPLPTPLDPEEPPFPALTSSSSTGSLAHLGVGGAGQGMNTPSSSPQHRPAVVSPLSLSTEARRQQAQQVSPTLSPLSPITQAVAMDALSLEQQLPYAFFTQTGSQQPPPQPQPPPPPPPVSQQQPPPPQVSVGLPQGGPLLPSASLTRGPQLPPLSVTVPSTLPQSPTENPGQSPMGIDATSAPALQYRTSAGSPATQSPTSPVSNQGFSPGSSPQHTSTLGSVFGDAYYEQQMTARQANALSRQLEQFNMMENAISSSSLYNPGSTLNYSQAAMMGLSGSHGGLQDPQQLGYTGHGGIPNIILTVTGESPPSLSKELSSTLAGVSDVSFDSDHQFPLDELKIDPLTLDGLHMLNDPDMVLADPATEDTFRMDRL
notes: also called endogenous CRTC1; source: endogenous, mouse primary cortical neurons (12 DIV), formaldehyde-crosslinked, in lysate
percent of CRTC1 co-immunoprecipitated with anti-CREB (FSK/KCl), relative to its immunoprecipitation with anti-CRTC1: ~37%
